Our source for the self-cleavage values is the RNAGym collection of RNA variant scans (doi:10.7554/elife.80360).

First the molecules themselves.
B1: HDV Ribozyme (parent)
chain: GGCCGGCAUGGUCCCAGCCUCCUCGCUGGCGCCGGCUGGGCAACAUUCCGAGGGGACCGUCCCCUCGGUAAUGGCGAAUGGGACCCA

Variants of B1 are the subject of this data set. Description: self-cleavage, relative activity (ratio to wild type); higher = more cleavage; co-transcriptional.
Turning to GGCCGGCGUGGUCCCAGCCUCCUCGCUGGCGCCGGCUGGGCAACAUUCCGAGGGGACCGUGCCCUCGGUAAUGGCGAAUGGGACCCA [A8G C61G], the self-cleavage is 1.04. As for GGCCGGCCUGGUCCCAGCCUCCUCGCAGGCGCCGGCUGGGCAACAUUCCGAGGGGACCGUCCCCUCGGUAAUGGCGAAUGGGACCCA [A8C U27A], the self-cleavage came to 0.867. Take GGCCGGCGUCGUCCCAGCCUCCUCGCUGGCGCCGGCUGGGCAACAUUCCGAGGGGACCGUCCCCUCGGUAAUGGCGAAUGGGACCCA [A8G G10C]: the self-cleavage stood at 0.665. Regarding GGCCGGCGUGGUCCCAGCCUCCUCGCUGGCGCCGGCUGGGCAACAUUCCGAGGGGACCGUCCCCUCGGUAAUGGCGAAUGGGACACA [A8G C85A], the self-cleavage was found to be 0.68.

As to GGCCGGCCUGGUCCCAGCCUCCACGCUGGCGCCGGCUGGGCAACAUUCCGAGGGGACCGUCCCCUCGGUAAUGGCGAAUGGGACCCA [A8C U23A], the self-cleavage turned out to be 0.615. Turning to GGCCGGCGUGGUCCCAGCUUCCUCGCUGGCGCCGGCUGGGCAACAUUCCGAGGGGACCGUCCCCUCGGUAAUGGCGAAUGGGACCCA [A8G C19U], the self-cleavage was determined as 0.104.

Turning to GGCCGGCGUGGUCCCAGCCUACUCGCUGGCGCCGGCUGGGCAACAUUCCGAGGGGACCGUCCCCUCGGUAAUGGCGAAUGGGACCCA [A8G C21A], the self-cleavage stood at 0.0415. Regarding GGCCGGCGUGGUCCCAGCCUCCUCGGUGGCGCCGGCUGGGCAACAUUCCGAGGGGACCGUCCCCUCGGUAAUGGCGAAUGGGACCCA [A8G C26G], the self-cleavage was 1.36. For the variant GGCCGGCGUGGUCCCAGCCUCCUCGCUGGCGUCGGCUGGGCAACAUUCCGAGGGGACCGUCCCCUCGGUAAUGGCGAAUGGGACCCA [A8G C32U], the self-cleavage was found to be 0.609.

Consider GGCCGGCGUGGUCCCAGCCUCCUCGCUGGCGGCGGCUGGGCAACAUUCCGAGGGGACCGUCCCCUCGGUAAUGGCGAAUGGGACCCA [A8G C32G], for which the self-cleavage worked out at 0.0573. To GGCCGGCGUGGUCCCAGCCUCCUCGCUGGCGCCGGCUGGGCAACAUUCCGAGGGGAACGUCCCCUCGGUAAUGGCGAAUGGGACCCA [A8G C57A] belongs 0.779; to GGCCGGCGUGGUCCCAGCCUCCUCGCUGGCGCCGGCUGGGCAACAUUCCGGGGGGACCGUCCCCUCGGUAAUGGCGAAUGGGACCCA [A8G A51G], 1.16. With GGCCGGCCUGGUCCCAGCCUCCUCGCUGGCCCCGGCUGGGCAACAUUCCGAGGGGACCGUCCCCUCGGUAAUGGCGAAUGGGACCCA [A8C G31C], the self-cleavage is 0.119. Consider GGCCGGCCUGGUCCCAGCCUCCUCGCUGGCUCCGGCUGGGCAACAUUCCGAGGGGACCGUCCCCUCGGUAAUGGCGAAUGGGACCCA [A8C G31U], for which the self-cleavage amounted to 0.214. On to GGCCGGCGUGGUCCCAGCCUCCUCGCUGGCGCCGGCUGGGCAACAUUCCGAGGGGACCGUCACCUCGGUAAUGGCGAAUGGGACCCA [A8G C62A], for which the self-cleavage amounted to 1.03. With GGCCGGCGUGGUCCCAGCCUCCUCGCUGGCGCCGGCUGGGCAACAUUCCGAGCGGACCGUCCCCUCGGUAAUGGCGAAUGGGACCCA [A8G G53C], the self-cleavage came out at 1.03. Consider GGCCGGCCUGGUCCCAGCCUCCUCGCUGGCGCCGGCUGGGCAACAUUCCGAGGGGACCGUCCCCUCGGUAACGGCGAAUGGGACCCA [A8C U72C], for which the self-cleavage was found to be 0.185. As for GGCCGGCGUGGUCCCAGCCUCCUCUCUGGCGCCGGCUGGGCAACAUUCCGAGGGGACCGUCCCCUCGGUAAUGGCGAAUGGGACCCA [A8G G25U], the self-cleavage turned out to be 0.35. For the variant GGCCGGCGUGGUCCCAUCCUCCUCGCUGGCGCCGGCUGGGCAACAUUCCGAGGGGACCGUCCCCUCGGUAAUGGCGAAUGGGACCCA [A8G G17U], the self-cleavage came out at 0.554.

For GGCCGGCGUGGUCCCAGCCUCCUCGCUGGCGCCGGCUGGGCAACAUUCCGAGGGGUCCGUCCCCUCGGUAAUGGCGAAUGGGACCCA [A8G A56U], the self-cleavage was determined as 0.831. With GGCCGGCGUGGUCCCAGCCUCGUCGCUGGCGCCGGCUGGGCAACAUUCCGAGGGGACCGUCCCCUCGGUAAUGGCGAAUGGGACCCA [A8G C22G], the self-cleavage turned out to be 0.0489. As to GGCCGGCGUGGUCCCAGCCUCUUCGCUGGCGCCGGCUGGGCAACAUUCCGAGGGGACCGUCCCCUCGGUAAUGGCGAAUGGGACCCA [A8G C22U], the self-cleavage turned out to be 0.361. Take GGCCGGCGUGGUCCCAGCCUCCUCGCUGGCGCCGGCUGGGCAACAUUCCGAGGGGACCGUCCCCUCGGUAAUGUCGAAUGGGACCCA [A8G G74U]: the self-cleavage turned out to be 0.111. The figure for GGCCGGCGUGGUCCCAGCCUCCUCGCUGGCGCCGGCUGGGCAACAUUCCGAGGGGACCGUCCCCUCGGUAAUCGCGAAUGGGACCCA [A8G G73C] is 0.437; for GGCCGGCGUGGUCCCAGCCUCCUCGCUGGCGCCGGCUGGGGAACAUUCCGAGGGGACCGUCCCCUCGGUAAUGGCGAAUGGGACCCA [A8G C41G] it is 0.578.

Take GGCCGGCGUGGUCCCAGACUCCUCGCUGGCGCCGGCUGGGCAACAUUCCGAGGGGACCGUCCCCUCGGUAAUGGCGAAUGGGACCCA [A8G C18A]: the self-cleavage came out at 0.0875. To GGCCGGCGUGGUCCCAGUCUCCUCGCUGGCGCCGGCUGGGCAACAUUCCGAGGGGACCGUCCCCUCGGUAAUGGCGAAUGGGACCCA [A8G C18U] belongs 0.297; to GGCCGGCGUGGUCGCAGCCUCCUCGCUGGCGCCGGCUGGGCAACAUUCCGAGGGGACCGUCCCCUCGGUAAUGGCGAAUGGGACCCA [A8G C14G], 0. Take GGCCGGCCUGGUCCCAGCCUCCUCGCUGGCGCCGGCUGGGCAACAUUCCGAGGGGACCGUCCCCUCGGUAAUGGCCAAUGGGACCCA [A8C G76C]: the self-cleavage came out at 0.705. The figure for GGCCGGCCUGGUCCCAGCCUCCUCGCUGGCGCCAGCUGGGCAACAUUCCGAGGGGACCGUCCCCUCGGUAAUGGCGAAUGGGACCCA [A8C G34A] is 0.0475; for GGCCGGCGUGGUCCCAGCCUCCUCGCUGGCGCCGGAUGGGCAACAUUCCGAGGGGACCGUCCCCUCGGUAAUGGCGAAUGGGACCCA [A8G C36A] it is 0.0386. To GGCCGGCCUGGUCCCAGCCUCCUCGCUGGCGCCGGCUGGGCAACAUUCCGACGGGACCGUCCCCUCGGUAAUGGCGAAUGGGACCCA [A8C G52C] belongs 0.957.
